Results as given in article PMC9853177 (2023).

Target: linear tetra-ubiquitin (M1-linked Ub4) (Homo sapiens, UniProt P0CG47)
Assay: ITC

Kd: 90 nM
B1: HOIL-1 (protein)
chain: MDEKTKKAEEMALSLTRAVAGGDEQVAMKCAIWLAEQRVPLSVQLKPEVSPTQDIRLWVSVEDAQMHTVTIWLTVRPDMTVASLKDMVFLDYGFPPVLQQWVIGQRLARDQETLHSHGVRQNGDSAYLYLLSARNTSLNPQELQRERQLRMLEDLGFKDLTLQPRGPLEPGPPKPGVPQEPGRGQPDAVPEPPPVGWQCPGCTFINKPTRPGCEMCCRARPEAYQVPASYQPDEEERARLAGEEEALRQYQQRKQQQQEGNYLQHVQLDQRSLVLNTEPAECPVCYSVLAPGEAVVLRECLHTFCRECLQGTIRNSQEAEVSCPFIDNTYSCSGKLLEREIKALLTPEDYQRFLDLGISIAENRSAFSYHCKTPDCKGWCFFEDDVNEFTCPVCFHVNCLLCKAIHEQMNCKEYQEDLALRAQNDVAARQTTEMLKVMLQQGEAMRCPQCQIVVQKKDGCDWIRCTVCHTEICWVTKGPRWGPGGPGDTSGGCRCRVNGIPCHPSCQNCH
